We go through three molecules from PMC12754632, “ZapA uses a two‐pronged mechanism to facilitate Z ring formation in Escherichia coli” (mLife, 2025).

One data set addresses T1, FtsZ^D212N (Escherichia coli, UniProt P0A9A6 1-383, D212N).
T1 construct: also called GTPase mutant (FtsZ^D212N); source: E. coli BL21/pLys, purified (Ni-NTA; His-SUMO tag cleaved with Ulp1); not shown: His-SUMO, N-terminal, cleaved
T1 sequence (looked up): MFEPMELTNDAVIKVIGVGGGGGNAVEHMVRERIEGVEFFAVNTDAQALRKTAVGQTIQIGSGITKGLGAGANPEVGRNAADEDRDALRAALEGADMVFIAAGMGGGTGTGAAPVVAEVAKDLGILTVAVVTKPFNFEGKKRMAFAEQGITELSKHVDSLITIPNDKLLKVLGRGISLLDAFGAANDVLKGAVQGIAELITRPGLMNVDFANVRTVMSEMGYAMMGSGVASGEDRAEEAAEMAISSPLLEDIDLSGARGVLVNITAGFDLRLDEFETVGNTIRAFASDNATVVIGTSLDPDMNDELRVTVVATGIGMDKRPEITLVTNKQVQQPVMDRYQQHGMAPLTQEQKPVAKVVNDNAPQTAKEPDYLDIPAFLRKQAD
The experiment in a line: pull-down; H-SUMO-ZapA (6 μM) and FtsZ (2 μM) in Pol buffer (50 mM HEPES-NaOH pH 6.8, 50 mM KCl, 10 mM MgCl2), GTP in the buffers throughout, held on Ni-NTA agarose, washed with 500 mM NaCl and 20 mM imidazole, eluted with 250 mM imidazole; fractions on SDS-PAGE. As to conditions: both partners purified.

The target in a further data set is T2, wild-type FtsZ (Escherichia coli, UniProt P0A9A6 1-383).
T2 construct: FtsZ, Escherichia coli; Forms filaments with GTP; GTP was present in the pull-down and the sedimentation assays; source: E. coli BL21/pLys, purified (Ni-NTA; His-SUMO tag cleaved with Ulp1); not shown: His-SUMO, N-terminal, cleaved
T2 sequence (looked up): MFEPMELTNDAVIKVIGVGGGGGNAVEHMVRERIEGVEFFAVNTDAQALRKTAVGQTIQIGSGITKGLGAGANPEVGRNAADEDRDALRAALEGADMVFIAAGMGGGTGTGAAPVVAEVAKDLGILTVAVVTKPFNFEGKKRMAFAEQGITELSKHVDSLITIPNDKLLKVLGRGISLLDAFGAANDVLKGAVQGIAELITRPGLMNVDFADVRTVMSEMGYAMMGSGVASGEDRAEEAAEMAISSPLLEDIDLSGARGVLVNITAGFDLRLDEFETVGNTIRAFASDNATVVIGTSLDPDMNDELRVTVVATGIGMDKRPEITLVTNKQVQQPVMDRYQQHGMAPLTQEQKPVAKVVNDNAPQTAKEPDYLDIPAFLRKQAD
As to the kind of experiment: co-sedimentation; FtsZ or variants (5 μM) with or without equal molar untagged ZapA, 2.5 mM GTP, no Ca2+, room temperature 5 min, ultracentrifugation; pellets and supernatants on SDS-PAGE; 50 mM HEPES pH 6.8, 10 mM MgCl2, 200 mM KCl (legend of Figure 4A). As to conditions: both partners purified.

Data set [1] concerns the molecule itself. As to the kind of experiment: sedimentation of polymers; FtsZ variants (5 μM) in Pol buffer with 10 mM CaCl2 and 2.5 mM GTP, room temperature, ultracentrifugation at 100,000 rpm for 15 min at 25°C; polymerization of FtsZ with itself.

B1: H-SUMO-ZapA (natural protein, Escherichia coli, UniProt P0ADS2 1-109, looked up)
chain: MSAQPVDIQIFGRSLRVNCPPDQRDALNQAADDLNQRLQDLKERTRVTNTEQLVFIAALNISYELAQEKAKTRDYAASMEQRIRMLQQTIEQALLEQGRITEKTNQNFE
notes: ZapA, Escherichia coli; Held on Ni-NTA agarose by the His tag in the pull-down; source: E. coli BL21 (DE3)/pLys, purified (Ni-NTA); not shown: His, N-terminal, kept; SUMO, N-terminal, kept
With B1, the binding result in the data set with FtsZ^D212N was “binds”.

B2: untagged ZapA (natural protein, Escherichia coli, UniProt P0ADS2 1-109, looked up)
chain: MSAQPVDIQIFGRSLRVNCPPDQRDALNQAADDLNQRLQDLKERTRVTNTEQLVFIAALNISYELAQEKAKTRDYAASMEQRIRMLQQTIEQALLEQGRITEKTNQNFE
notes: ZapA, Escherichia coli; source: E. coli BL21 (DE3)/pLys, purified (Ni-NTA; His-SUMO tag cleaved with Ulp1); not shown: His-SUMO, N-terminal, cleaved
With B2, the binding result with wild-type FtsZ is recorded as “binds”.

B3: FtsZ^F2A (natural protein, Escherichia coli, UniProt P0A9A6 1-383, looked up)
chain: MAEPMELTNDAVIKVIGVGGGGGNAVEHMVRERIEGVEFFAVNTDAQALRKTAVGQTIQIGSGITKGLGAGANPEVGRNAADEDRDALRAALEGADMVFIAAGMGGGTGTGAAPVVAEVAKDLGILTVAVVTKPFNFEGKKRMAFAEQGITELSKHVDSLITIPNDKLLKVLGRGISLLDAFGAANDVLKGAVQGIAELITRPGLMNVDFADVRTVMSEMGYAMMGSGVASGEDRAEEAAEMAISSPLLEDIDLSGARGVLVNITAGFDLRLDEFETVGNTIRAFASDNATVVIGTSLDPDMNDELRVTVVATGIGMDKRPEITLVTNKQVQQPVMDRYQQHGMAPLTQEQKPVAKVVNDNAPQTAKEPDYLDIPAFLRKQAD
notes: FtsZ, Escherichia coli; source: E. coli BL21/pLys, purified (Ni-NTA; His-SUMO tag cleaved with Ulp1); not shown: His-SUMO, N-terminal, cleaved
For B3, the binding result in data set [1] is “binds”.
